From US20070054846A1, “Bcl-w structure and uses therefor” (priority 2002, published 2007)
Changes are numbered by the printed parent chain. In names and notes the source's numbering stands. Values belong to the molecule of their own block, whether it stands above or below them.

Assays:
Bcl-xLΔC24 = target: T1, Bcl-xLΔC24 (Homo sapiens, UniProt Q07817); assay: Co-immunoprecipitation / GST pull-down; format: binding; conditions: C-terminally truncated Bcl-xL (ΔC24)
T1 construct: expressed in transfected cells
Source text: (§1) Bcl-xL and Bcl-2 also contain hydrophobic residues at their C-termini, similar to those found in Bcl-w (FIG. 1C), yet the low level of sequence identity following α8 and the absence of 3D-structural information, makes prediction of their conformation difficult. Since BCl-xL, like Bcl-w, is only partially membrane-bound in healthy cells (Hsu et al., 1997), we compared the ability of FLAG-tagged full-length Bcl-xL or a C-terminally truncated mutant (ΔC24) to bind to BimL or the […]L94A B3 mutant.
Direct interactions between Bcl-w and BimL were monitored using GST pull-down experiments. These were performed in 100 μl of PBS (phosphate buffered saline pH 7.3) containing 2 mM DTT. Typically excess soluble proteins were added to equivalent amounts of resin bound proteins. After incubation at room temperature for 30 minutes the resin was pelleted and then washed twice with 200 μl of PBS containing 0.2% Tween 20. […]
(§2) Cell culture, stable transfections into FDC-P1, transient transfections into 293T human embryonic kidney cells, metabolic labelling with ^35S-methionine/cysteine (NEN) and co-immunoprecipitation have been previously described (O'Connor et al., 1998, Moriishi et al., 1999; Huang et al., 1998; Wilson-Annan et al., 2003). […] The immunoprecipitates were resolved by SDS-PAGE (Novex), transferred onto nitrocellulose membranes (APB) and the proteins detected by fluorography (Amplify; APB).

full-length Bcl-xL = target: T2, full-length Bcl-xL (Homo sapiens, UniProt Q07817); assay: Co-immunoprecipitation from cell extracts; format: binding; conditions: FLAG-tagged full-length Bcl-xL
T2 construct: FLAG-tagged full-length Bcl-xL or a C-terminally truncated mutant (ΔC24); expressed in transfected cells
Source text: as §1
as §2, with “2003). Briefly, mammalian pEF-based expression vectors for Bcl-w, BCl-xL, Bim, Bmf, Bad and Bik (O'Connor et al., 1998, Huang et al., 1998; Moriishi et al., 1999; Wilson-Annan et al., 2003) were transiently transfected using liposome mediated transfection (Lipofectamine™; Invitrogen).” for “2003).”

FDC-P1 myeloid cells = assay: Survival assay of cells overexpressing Bcl-w constructs; format: cell-based; conditions: overexpressed FLAG-tagged protein, IL-3 withdrawal, γ-irradiation or cytotoxic drugs
Procedure: Like its cousins Bcl-2 and Bcl-xL, Bcl-w overexpression protects cells from diverse death stimuli, including cytokine deprivation and γ-irradiation (Gibson et al., 1996).
Survival assays were performed as described previously (O'Connor et al., 1998; Huang et al., 1998; Wilson-Annan et al., 2003; and references therein). Briefly, cells (2−5×10^4 per time point) were left untreated, deprived of their essential growth factor IL-3, exposed to 10Gy γ-irradiation (provided by a ^60Co source), 1-100 nM staurosprorine (Sigma). Cell viability was quantified by flow cytometric analysis of cells excluding 5 μg/mL PI (Sigma) using a FACScan (Becton Dickinson). Each time point was performed in triplicate on at least 3 independent clones of each genotype and the experiments repeated at least 3 times.

Bcl-wΔC29 [1] = target: T3, Bcl-wΔC29 (Homo sapiens, UniProt Q92843, Q133R); assay: BIAcore surface plasmon resonance, truncated Bcl-w in solution on immobilised Bim; format: binding; conditions: for Kd: Bcl-w truncated by 29 residues at the C-terminus
T3 construct: GST (N, cleaved yes); made in house; host or cells: E. coli BL21(DE3)
T3 sequence (Q92843 1-164 Q133R): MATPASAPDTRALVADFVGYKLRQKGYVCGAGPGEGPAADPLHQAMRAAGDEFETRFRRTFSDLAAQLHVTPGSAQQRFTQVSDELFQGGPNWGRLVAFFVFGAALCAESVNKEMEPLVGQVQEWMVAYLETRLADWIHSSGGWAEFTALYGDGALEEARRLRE
Source text: (§3) Human Bcl-w and mouse BimL were expressed as glutathione-S-transferase (GST) fusion proteins in E. coli BL21(DE3) and purified by affinity chromatography using Glutathione Sepharose (APB; Amersham Pharmacia Biotech). Following purification of the GST-fusion proteins Bcl-w and Bim were released from GST using PreScission protease (APB) and then further purified by size exclusion chromatography using a Superdex-75 column. All the purified proteins have 5 additional N-terminal residues (GPLGS) as a result of cloning. Isotopically labelled proteins were prepared as described previously (Day et al., 1999). Samples of Bcl-wΔC10 used for NMR contained ˜1.0 mM protein in 50 mM sodium phosphate (pH 6.7), 70 mM NaCl, 2 mM tris-(2-carboxyethyl) phosphine (TCEP) and 0.04% sodium azide in H2O:^2H2O (95:5). The Bcl-wΔC5 sample contained 0.4 mM protein in the same buffer. Site specific mutants of BimL and Bcl-w were generated using a PCR based strategy as described previously (Day et al., 1999). The sequence of all clones was confirmed by sequencing.
Analysis of protein interactions by surface plasmon resonance was carried out on a BIAcore 2000 biosensor (BIAcore). For the immobilisation to BIAcore CM 5 sensorchips (BIAcore), wild-type or mutant Bim proteins were buffer exchanged into 20 mM Na-acetate, pH 4.5. N-hydroxysuccinimide coupling and binding analysis was done as described previously (Lackmann et al., 1997). In order to minimise mass-transport mediated effects the kinetic experiments were routinely carried out at 20 μl/min. Bcl-w binding at concentrations between 2 and 0.03 μM in running buffer (10 mM HEPES, pH 7.4, 150 mM NaCl, 3.4 mM EDTA, 0.005% Tween 20) was performed on sensorchip surfaces derivatised on parallel channels with a non-relevant protein, BimLΔC27 and BimLΔC27-L94A. The binding kinetics were derived from the sensorgrams following subtraction of baseline responses (measured on the control channel) by ‘global analysis’ using the BIA Evaluation software (vers. 3.02, BIAcore). […]

full length Bcl-w [2] = target: T4, full length Bcl-w (Homo sapiens, UniProt Q92843, Q133R); assay: BIAcore surface plasmon resonance, Bcl-w protein in solution on immobilised Bim; format: binding; design: GST (N, cleaved yes); made in house; host or cells: E. coli BL21(DE3); conditions: for Kd: 1:1 Langmuir model, global analysis
T4 sequence (Q92843 1-193 Q133R): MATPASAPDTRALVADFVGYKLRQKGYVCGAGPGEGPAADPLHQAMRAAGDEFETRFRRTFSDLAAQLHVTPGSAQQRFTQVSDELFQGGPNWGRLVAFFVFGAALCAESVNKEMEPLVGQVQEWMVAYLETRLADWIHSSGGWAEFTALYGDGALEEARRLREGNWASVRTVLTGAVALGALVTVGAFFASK
Source text: as §3
Analysis of protein interactions by surface plasmon resonance was carried out on a BIAcore 2000 biosensor (BIAcore). For the immobilisation to BIAcore CM 5 sensorchips (BIAcore), wild-type or mutant Bim proteins were buffer exchanged into 20 mM Na-acetate, pH 4.5. N-hydroxysuccinimide coupling and binding analysis was done as described previously (Lackmann et al., 1997). In order to minimise mass-transport mediated effects the kinetic experiments were routinely carried out at 20 μl/min. Bcl-w binding at concentrations between 2 and 0.03 μM in running buffer (10 mM HEPES, pH 7.4, 150 mM NaCl, 3.4 mM EDTA, 0.005% Tween 20) was performed on sensorchip surfaces derivatised on parallel channels with a non-relevant protein, BimLΔC27 and BimLΔC27-L94A. The binding kinetics were derived from the sensorgrams following subtraction of baseline responses (measured on the control channel) by ‘global analysis’ using the BIA Evaluation software (vers. 3.02, BIAcore). The surface of the chip was regenerated with 50 mM 1,2-diethylamine containing 0.1% Triton X100, followed by two washes with running buffer.

full length Bcl-w [3] = target: T4, full length Bcl-w; assay: GST pull-down; format: binding; design: N-terminally FLAG-tagged full-length or C-terminally truncated Bcl-w; expressed in transfected cells; host or cells: 293T human embryonic kidney cells (pEF-based vector, transient)
Source text: as §3
Direct interactions between Bcl-w and BimL were monitored using GST pull-down experiments. These were performed in 100 μl of PBS (phosphate buffered saline pH 7.3) containing 2 mM DTT. Typically excess soluble proteins were added to equivalent amounts of resin bound proteins. […]

Bcl-wΔC10 = target: T5, Bcl-wΔC10 (Homo sapiens, UniProt Q92843, A128E/Q133R); assay: GST pull-down; format: binding
T5 construct: made in house; host or cells: E. coli BL21(DE3)
T5 sequence (Q92843 1-183 A128E/Q133R): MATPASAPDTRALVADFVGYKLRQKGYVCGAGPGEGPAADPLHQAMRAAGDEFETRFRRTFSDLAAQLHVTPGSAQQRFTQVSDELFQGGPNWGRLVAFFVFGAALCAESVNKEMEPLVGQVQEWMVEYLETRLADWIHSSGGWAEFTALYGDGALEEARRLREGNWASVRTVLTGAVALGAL
Source text: as §3
(§4) Direct interactions between Bcl-w and BimL were monitored using GST pull-down experiments. These were performed in 100 μl of PBS (phosphate buffered saline pH 7.3) containing 2 mM DTT. Typically excess soluble proteins were added to equivalent amounts of resin bound proteins. After incubation at room temperature for 30 minutes the resin was pelleted and then washed twice with 200 μl of PBS containing 0.2% Tween 20. After removal of the second wash 10 μl of SDS-PAGE sample buffer was added to each sample and the samples were boiled then loaded onto 16% polyacrylamide gels that were electrophoresed and stained with Coomassie Blue R250. The staining intensity of the bound soluble protein indicated the strength of the interaction between the two proteins.

Bcl-wΔC29 [4] = target: T3, Bcl-wΔC29; assay: GST pull-down; format: binding
Source text: as §3, §4

Bcl-wΔC20 = target: T6, Bcl-wΔC20 (Homo sapiens, UniProt Q92843, Q133R); assay: GST pull-down; format: binding
T6 construct: made in house; host or cells: E. coli BL21(DE3)
T6 sequence (Q92843 1-173 Q133R): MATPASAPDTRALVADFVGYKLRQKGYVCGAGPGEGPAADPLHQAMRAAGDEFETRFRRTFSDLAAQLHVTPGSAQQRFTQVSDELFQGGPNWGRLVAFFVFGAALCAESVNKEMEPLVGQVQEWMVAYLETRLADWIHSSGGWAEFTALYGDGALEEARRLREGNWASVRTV
Source text: as §3, §4

T1 sequence (Q07817 1-209 limits assumed, stated change not applied): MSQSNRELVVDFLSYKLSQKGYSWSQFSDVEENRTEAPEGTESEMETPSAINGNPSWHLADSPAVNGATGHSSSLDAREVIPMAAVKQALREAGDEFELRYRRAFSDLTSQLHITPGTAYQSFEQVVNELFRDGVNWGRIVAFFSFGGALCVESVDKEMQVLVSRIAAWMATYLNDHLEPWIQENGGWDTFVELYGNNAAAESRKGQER
T2 sequence (Q07817 whole entry, species assumed, the tested form may be a part): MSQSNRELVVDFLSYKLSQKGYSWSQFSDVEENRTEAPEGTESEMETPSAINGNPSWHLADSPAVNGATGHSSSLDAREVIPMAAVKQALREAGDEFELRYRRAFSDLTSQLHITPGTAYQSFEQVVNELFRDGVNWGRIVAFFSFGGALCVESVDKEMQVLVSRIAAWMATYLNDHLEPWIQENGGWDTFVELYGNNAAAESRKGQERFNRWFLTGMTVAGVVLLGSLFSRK

B2: Bcl-wΔC10: SEQ ID NO:2; Bcl-w derivative lacking the last 10 residues, Ala128 substituted with glutamate (protein)
chain: T5 sequence (Q92843 1-183 A128E/Q133R)
modifications: Bcl-w deltaC10 A128E
notes: Bcl-w derivative lacking the last 10 residues, Ala128 substituted with glutamate
pro-survival activity (FDC-P1 myeloid cells): biologically inert

B3: BimLΔC27: Purified, C-terminally truncated mouse BimL, a BH3-only protein (protein)
chain: GPLGSMAKQPSDVSSECDREGGQLQPAERPPQLRPGAPTSLQTEPQDRSPAPMSCDKSTQTPSPPCQAFNHYLSAMASIRQSQEEPEDLRPEIRIAQELRRIGDEFNETYTRRVFAND
Kd (Bcl-wΔC29 [1]): 11 nM
increase in the association rate versus full length Bcl-w (Bcl-wΔC29 [1]; Bcl-wΔC29): three-fold
Kd (full length Bcl-w [2]): 24 nM
binding in GST pull-down (full length Bcl-w [3]): bound
binding in GST pull-down (Bcl-wΔC10): bound
binding in GST pull-down (Bcl-wΔC29 [4]): bound equally well
binding in GST pull-down (Bcl-wΔC20): bound equally well

B5: Bcl-wΔC3: C-terminal truncated variant of Bcl-w lacking 3 residues (protein)
single chain: MATPASAPDTRALVADFVGYKLRQKGYVCGAGPGEGPAADPLHQAMRAAGDEFETRFRRTFSDLAAQLHVTPGSAQQRFTQVSDELFQGGPNWGRLVAFFVFGAALCAESVNKEMEPLVGQVQEWMVAYLETRLADWIHSSGGWAEFTALYGDGALEEARRLREGNWASVRTVLTGAVALGALVTVGAFF
pro-survival activity (FDC-P1 myeloid cells): fully active

B6: Bcl-wΔC5: C-terminal truncated variant of Bcl-w lacking 5 residues (protein)
single chain: MATPASAPDTRALVADFVGYKLRQKGYVCGAGPGEGPAADPLHQAMRAAGDEFETRFRRTFSDLAAQLHVTPGSAQQRFTQVSDELFQGGPNWGRLVAFFVFGAALCAESVNKEMEPLVGQVQEWMVAYLETRLADWIHSSGGWAEFTALYGDGALEEARRLREGNWASVRTVLTGAVALGALVTVGA
pro-survival activity (FDC-P1 myeloid cells): behaved like the full-length protein
pro-survival activity (FDC-P1 myeloid cells; listed as ΔC5): fully active

Second part, led by results:

association in cell extracts (full-length Bcl-xL): associates only with wild-type BimL
B1: BimL-L94A: BimL with BH3 mutation L94A (protein)
chain: MAKQPSDVSSECDREGGQLQPAERPPQLRPGAPTSLQTEPQDRSPAPMSCDKSTQTPSPPCQAFNHYLSAMASIRQSQEEPEDLRPEIRIAQEARRIGDEFNETYTRRVFANDYREAEDHPQMVILQLLRFIFRLVWRRH
modifications: left off: small tags and cut ends
binding (Bcl-xLΔC24): bound wild-type BimL and the L94A mutant equally

Kd (Bcl-wΔC29 [1]): 13 nM
decrease in the association rate versus wild-type Bim (full length Bcl-w [2]): 10 fold
increase in the dissociation rates versus wild-type Bim (full length Bcl-w [2]): five-fold
reduction of affinity versus wild-type Bim (full length Bcl-w [2]): over 60 fold
Kd (full length Bcl-w [2]): 1600 nM
binding in GST pull-down (full length Bcl-w [3]): only bound wt BimLΔC27
binding in GST pull-down (Bcl-wΔC10): only bound wt BimLΔC27
binding in GST pull-down (Bcl-wΔC29 [4]): bound equally well
binding in GST pull-down (Bcl-wΔC20): bound equally well
B4: BimLΔC27-L94A: Mutant version of C-terminally truncated BimL with BH3 domain mutation L94A (protein)
chain: B3 chain with L99A
